Data on 125 sequences can be found in the supplement of paper PMC9112550, “Optimization of the antimicrobial peptide Bac7 by deep mutational scanning” (BMC Biology, 2022).
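Further: peptides expressed intracellularly from a pBAD plasmid library in pooled LB shake-flask culture, induced with 0.3% L-arabinose, DNA abundance read by NGS, three biological replicates, DESeq2 with apeglm shrinkage.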

The test system of this data set is Escherichia coli TOP10. Nature of the data set: shrunken log2 fold change of peptide-encoding DNA abundance (4.5 h post-induction vs induction); higher = less antimicrobial activity (less host growth inhibition). The following applies: time post-induction: 4.5 h; library: site-saturation at positions 5, 18, 19, 20.
On to RRIRTRPPRLPRPRPRPWKQPRP, for which the “shrunken log2 fold change” value came out at 0.0162.

Regarding RRIRDRPPRLPRPRPRPDFEPRP, the “shrunken log2 fold change” value came to 1.35.

Take RRIRDRPPRLPRPRPRPVETPRP: the “shrunken log2 fold change” value was 0.222.

Take RRIRYRPPRLPRPRPRPSNGPRP: the “shrunken log2 fold change” value is 0.015.

Turning to RRIRRRPPRLPRPRPRPICHPRP, the “shrunken log2 fold change” value came to 0.692.

Take RRIRIRPPRLPRPRPRPQIAPRP: the “shrunken log2 fold change” value is -0.0185.

For RRIRPRPPRLPRPRPRPAFKPRP, the “shrunken log2 fold change” value was 0.192.

As to RRIRGRPPRLPRPRPRPCLQPRP, the “shrunken log2 fold change” value came out at 0.264.

Regarding RRIRFRPPRLPRPRPRPWQFPRP, the “shrunken log2 fold change” value is -0.333.

Consider RRIRPRPPRLPRPRPRPCVGPRP, for which the “shrunken log2 fold change” value turned out to be 0.267.

RRIRVRPPRLPRPRPRPKPRPRP: the “shrunken log2 fold change” value turned out to be 0.638.

RRIRARPPRLPRPRPRPTHDPRP: the “shrunken log2 fold change” value was determined as 0.645.

Regarding RRIRERPPRLPRPRPRPSKNPRP, the “shrunken log2 fold change” value was -0.895.

Take RRIRYRPPRLPRPRPRPCGPPRP: the “shrunken log2 fold change” value was -0.436.

Consider RRIRPRPPRLPRPRPRPFLHPRP, for which the “shrunken log2 fold change” value was -0.273.

With RRIRCRPPRLPRPRPRPRPTPRP, the “shrunken log2 fold change” value was determined as 0.808.

Turning to RRIRLRPPRLPRPRPRPSHMPRP, the “shrunken log2 fold change” value is -0.228.

In the case of RRIRQRPPRLPRPRPRPEINPRP, the “shrunken log2 fold change” value was -0.15.

As for RRIRPRPPRLPRPRPRPVHQPRP, the “shrunken log2 fold change” value was -0.00254.

Regarding RRIRKRPPRLPRPRPRPWFEPRP, the “shrunken log2 fold change” value is 0.0346.

Turning to RRIRTRPPRLPRPRPRPIWLPRP, the “shrunken log2 fold change” value was -0.201.

As to RRIRSRPPRLPRPRPRPVAHPRP, the “shrunken log2 fold change” value was -0.0951.

RRIRHRPPRLPRPRPRPHWTPRP: the “shrunken log2 fold change” value was -0.00191.

For RRIRYRPPRLPRPRPRPRDWPRP, the “shrunken log2 fold change” value amounted to 0.0703.

Turning to RRIRMRPPRLPRPRPRPWVNPRP, the “shrunken log2 fold change” value came out at 0.0668.

Take RRIRCRPPRLPRPRPRPTTLPRP: the “shrunken log2 fold change” value was -0.219.

As to RRIRIRPPRLPRPRPRPCEYPRP, the “shrunken log2 fold change” value is -0.115.

On to RRIRLRPPRLPRPRPRPFDYPRP, for which the “shrunken log2 fold change” value was -0.974.

Turning to RRIRTRPPRLPRPRPRPPIMPRP, the “shrunken log2 fold change” value is -0.454.

With RRIRQRPPRLPRPRPRPLTWPRP, the “shrunken log2 fold change” value was -0.21.

Regarding RRIRQRPPRLPRPRPRPNSMPRP, the “shrunken log2 fold change” value is -0.25.

Take RRIRIRPPRLPRPRPRPLTPPRP: the “shrunken log2 fold change” value was -0.284.

As for RRIRYRPPRLPRPRPRPDRVPRP, the “shrunken log2 fold change” value is -0.234.

With RRIRSRPPRLPRPRPRPVFCPRP, the “shrunken log2 fold change” value is -0.024.

RRIRHRPPRLPRPRPRPFSDPRP: the “shrunken log2 fold change” value was -0.149.

On to RRIRHRPPRLPRPRPRPQFVPRP, for which the “shrunken log2 fold change” value is -0.163.

On to RRIRYRPPRLPRPRPRPHMDPRP, for which the “shrunken log2 fold change” value is -1.85.

Turning to RRIRARPPRLPRPRPRPFWHPRP, the “shrunken log2 fold change” value was 0.165.

Regarding RRIRDRPPRLPRPRPRPIKFPRP, the “shrunken log2 fold change” value is -0.236.

Take RRIRPRPPRLPRPRPRPFDFPRP: the “shrunken log2 fold change” value was -0.206.

RRIRNRPPRLPRPRPRPWWCPRP: the “shrunken log2 fold change” value was -0.111.

Regarding RRIRCRPPRLPRPRPRPPAHPRP, the “shrunken log2 fold change” value was 2.07.

RRIRQRPPRLPRPRPRPVALPRP: the “shrunken log2 fold change” value is -0.0318.

As to RRIRCRPPRLPRPRPRPIAPPRP, the “shrunken log2 fold change” value was determined as 0.509.

Turning to RRIRWRPPRLPRPRPRPCIYPRP, the “shrunken log2 fold change” value was -0.162.

Turning to RRIRSRPPRLPRPRPRPSNRPRP, the “shrunken log2 fold change” value was -0.114.

Consider RRIRPRPPRLPRPRPRPNCVPRP, for which the “shrunken log2 fold change” value is -0.0731.

Regarding RRIRVRPPRLPRPRPRPNALPRP, the “shrunken log2 fold change” value was -0.379.

On to RRIRIRPPRLPRPRPRPGVDPRP, for which the “shrunken log2 fold change” value turned out to be 0.0326.

Regarding RRIRVRPPRLPRPRPRPVWVPRP, the “shrunken log2 fold change” value is -0.123.

RRIRTRPPRLPRPRPRPEPPPRP: the “shrunken log2 fold change” value is 0.395.

Regarding RRIRWRPPRLPRPRPRPCNEPRP, the “shrunken log2 fold change” value is -0.409.

Consider RRIRSRPPRLPRPRPRPKFSPRP, for which the “shrunken log2 fold change” value amounted to 0.0488.

Regarding RRIRSRPPRLPRPRPRPSSGPRP, the “shrunken log2 fold change” value is -0.0991.

Regarding RRIRQRPPRLPRPRPRPACAPRP, the “shrunken log2 fold change” value was 0.587.

Take RRIRERPPRLPRPRPRPFRHPRP: the “shrunken log2 fold change” value came to 0.0628.

Turning to RRIRTRPPRLPRPRPRPFCVPRP, the “shrunken log2 fold change” value was -0.229.

On to RRIRVRPPRLPRPRPRPIYSPRP, for which the “shrunken log2 fold change” value was -0.203.

For RRIRIRPPRLPRPRPRPIQGPRP, the “shrunken log2 fold change” value is -0.0119.

On to RRIRTRPPRLPRPRPRPQHGPRP, for which the “shrunken log2 fold change” value was -0.187.

On to RRIRKRPPRLPRPRPRPVDLPRP, for which the “shrunken log2 fold change” value is -0.0854.

As for RRIRPRPPRLPRPRPRPKVDPRP, the “shrunken log2 fold change” value amounted to 0.0884.

Consider RRIRNRPPRLPRPRPRPDCKPRP, for which the “shrunken log2 fold change” value was -0.0698.

In the case of RRIRTRPPRLPRPRPRPKFQPRP, the “shrunken log2 fold change” value was determined as 0.114.

In the case of RRIRQRPPRLPRPRPRPGRRPRP, the “shrunken log2 fold change” value was found to be 0.388.

As for RRIRKRPPRLPRPRPRPDKVPRP, the “shrunken log2 fold change” value was 0.116.

In the case of RRIRVRPPRLPRPRPRPHWLPRP, the “shrunken log2 fold change” value was -0.291.

For RRIRPRPPRLPRPRPRPDDDPRP, the “shrunken log2 fold change” value is -0.175.

As for RRIRARPPRLPRPRPRPKYWPRP, the “shrunken log2 fold change” value was 0.233.

For the sequence RRIRQRPPRLPRPRPRPFTDPRP, the “shrunken log2 fold change” value worked out at 0.0299.

As for RRIRFRPPRLPRPRPRPWHRPRP, the “shrunken log2 fold change” value was found to be 2.08.

For the sequence RRIRRRPPRLPRPRPRPLPPPRP, the “shrunken log2 fold change” value turned out to be 0.937.

On to RRIRSRPPRLPRPRPRPCMLPRP, for which the “shrunken log2 fold change” value is -0.472.

With RRIRIRPPRLPRPRPRPAMHPRP, the “shrunken log2 fold change” value was -0.221.

Consider RRIRWRPPRLPRPRPRPHCQPRP, for which the “shrunken log2 fold change” value is -0.102.

With RRIRFRPPRLPRPRPRPSMQPRP, the “shrunken log2 fold change” value is -0.209.

With RRIRTRPPRLPRPRPRPTNDPRP, the “shrunken log2 fold change” value is -0.547.

Consider RRIRRRPPRLPRPRPRPEGVPRP, for which the “shrunken log2 fold change” value turned out to be 0.874.

With RRIRTRPPRLPRPRPRPVSIPRP, the “shrunken log2 fold change” value was -0.082.

Consider RRIRERPPRLPRPRPRPRCYPRP, for which the “shrunken log2 fold change” value was -0.138.

For RRIRWRPPRLPRPRPRPDHMPRP, the “shrunken log2 fold change” value is -0.128.

With RRIRARPPRLPRPRPRPWWMPRP, the “shrunken log2 fold change” value was 0.0201.

Take RRIRIRPPRLPRPRPRPCHRPRP: the “shrunken log2 fold change” value was -0.452.

In the case of RRIRMRPPRLPRPRPRPRQSPRP, the “shrunken log2 fold change” value came out at 0.982.

Consider RRIRPRPPRLPRPRPRPLPRPRP, for which the “shrunken log2 fold change” value is 0.443.

Take RRIRKRPPRLPRPRPRPFRPPRP: the “shrunken log2 fold change” value is -0.0332.

Consider RRIRCRPPRLPRPRPRPVPGPRP, for which the “shrunken log2 fold change” value came to 0.0667.

As for RRIRKRPPRLPRPRPRPCLDPRP, the “shrunken log2 fold change” value was -0.173.

For RRIRQRPPRLPRPRPRPHLLPRP, the “shrunken log2 fold change” value was 0.006.

As to RRIRYRPPRLPRPRPRPVAYPRP, the “shrunken log2 fold change” value was -0.926.

For the sequence RRIRKRPPRLPRPRPRPFEVPRP, the “shrunken log2 fold change” value was -0.0185.

Turning to RRIRHRPPRLPRPRPRPCNTPRP, the “shrunken log2 fold change” value is -0.416.

As to RRIRTRPPRLPRPRPRPRSCPRP, the “shrunken log2 fold change” value amounted to 0.423.

Regarding RRIRQRPPRLPRPRPRPFDTPRP, the “shrunken log2 fold change” value is -0.144.

For RRIRHRPPRLPRPRPRPPKEPRP, the “shrunken log2 fold change” value was determined as 0.121.

Turning to RRIRWRPPRLPRPRPRPTHAPRP, the “shrunken log2 fold change” value stood at 0.787.

For RRIRIRPPRLPRPRPRPLKPPRP, the “shrunken log2 fold change” value was -0.296.

In the case of RRIRHRPPRLPRPRPRPQMFPRP, the “shrunken log2 fold change” value is -0.0824.

Regarding RRIRVRPPRLPRPRPRPFYDPRP, the “shrunken log2 fold change” value was -0.0104.

As to RRIRARPPRLPRPRPRPIFEPRP, the “shrunken log2 fold change” value amounted to 0.125.

Turning to RRIRARPPRLPRPRPRPHGAPRP, the “shrunken log2 fold change” value came out at 0.52.

Turning to RRIRLRPPRLPRPRPRPWRNPRP, the “shrunken log2 fold change” value was 0.00408.

As to RRIRPRPPRLPRPRPRPKTNPRP, the “shrunken log2 fold change” value came out at 0.0176.

Regarding RRIRGRPPRLPRPRPRPGWLPRP, the “shrunken log2 fold change” value was 1.17.

Regarding RRIRERPPRLPRPRPRPGRDPRP, the “shrunken log2 fold change” value turned out to be 0.419.

Take RRIRKRPPRLPRPRPRPRCDPRP: the “shrunken log2 fold change” value is 0.288.

For the sequence RRIRNRPPRLPRPRPRPFRTPRP, the “shrunken log2 fold change” value was -0.066.

Consider RRIRSRPPRLPRPRPRPAATPRP, for which the “shrunken log2 fold change” value was determined as 0.67.

For the sequence RRIRTRPPRLPRPRPRPCNPPRP, the “shrunken log2 fold change” value is -0.0887.

Turning to RRIRMRPPRLPRPRPRPRICPRP, the “shrunken log2 fold change” value was 0.113.

On to RRIRSRPPRLPRPRPRPPEIPRP, for which the “shrunken log2 fold change” value was -0.19.

On to RRIRDRPPRLPRPRPRPYTSPRP, for which the “shrunken log2 fold change” value was found to be 0.0448.

Take RRIRGRPPRLPRPRPRPFWDPRP: the “shrunken log2 fold change” value turned out to be 0.322.

In the case of RRIRKRPPRLPRPRPRPDKDPRP, the “shrunken log2 fold change” value was -0.0555.

On to RRIRNRPPRLPRPRPRPNPLPRP, for which the “shrunken log2 fold change” value was 0.0887.

Take RRIRWRPPRLPRPRPRPVTLPRP: the “shrunken log2 fold change” value is -0.147.

For RRIRGRPPRLPRPRPRPEQMPRP, the “shrunken log2 fold change” value amounted to 0.152.

RRIRSRPPRLPRPRPRPADGPRP: the “shrunken log2 fold change” value was 0.218.

Regarding RRIRSRPPRLPRPRPRPIWSPRP, the “shrunken log2 fold change” value turned out to be 0.0119.

For the sequence RRIRPRPPRLPRPRPRPYDEPRP, the “shrunken log2 fold change” value is -0.0606.

As for RRIRDRPPRLPRPRPRPFVHPRP, the “shrunken log2 fold change” value was -0.0617.

Turning to RRIRVRPPRLPRPRPRPCKNPRP, the “shrunken log2 fold change” value was -0.0206.

For RRIRKRPPRLPRPRPRPTTNPRP, the “shrunken log2 fold change” value was 0.486.

On to RRIRGRPPRLPRPRPRPDWQPRP, for which the “shrunken log2 fold change” value is 0.336.

Take RRIRHRPPRLPRPRPRPMIAPRP: the “shrunken log2 fold change” value was -0.0185.
